Data published in patent US20140044644A1 (UNIVERSITY OF ZURICH, published 2014).

How the values were obtained:
[1] = molecular target: T1, Aβ40 (synthetic, fibrillar) (UniProt P05067 672-711); test: ELISA, Aβ40 coated, rat recombinant ankG in solution
T1 construct: domain: Aβ40; also called fibrillar Aβ40; Aβ40 peptide

[2] = molecular target: T2, Aβ42 (synthetic, fibrillar) (UniProt P05067 672-713); test: ELISA, Aβ42 coated, rat recombinant ankG in solution
T2 construct: domain: Aβ42; also called fibrillar Aβ42; Aβ42 peptide
T2 sequence (P05067 672-713 limits assumed): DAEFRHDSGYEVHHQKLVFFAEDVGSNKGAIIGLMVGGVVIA

T1 sequence (P05067 672-711 limits assumed): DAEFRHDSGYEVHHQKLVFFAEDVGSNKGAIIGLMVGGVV

- binding result [1]: no binding (tested: ankG 0-2.5 µg/ml)
- binding result [2]: no binding (tested: ankG 0-2.5 µg/ml)
B1: rat recombinant ankG (ankyrin G) (other, UniProt O70511-3 1-1806, looked up)
chain: MSEEAKEKTAKPAHRKRKGKKSDANASYLRAARAGHLEKALDYIKNGVDVNICNQNGLNALHLASKEGHVEVVSELLQREANVDAATKKGNTALHIASLAGQAEVVKVLVTNGANVNAQSQNGFTPLYMAAQENHLEVVRFLLDNGASQSLATEDGFTPLAVALQQGHDQVVSLLLENDTKGKVRLPALHIAARKDDTKAAALLLQNDTNADIESKSGFTPLHIAAHYGNINVATLLLNRAAAVDFTARNDITPLHVASKRGNANMVKLLLDRGAKIDAKTRDGLTPLHCGARSGHEQVVEMLLDRAAPILSKTKNGLSPLHMATQGDHLNCVQLLLQHNVPVDDVTNDYLTALHVAAHCGHYKVAKVLLDKKANPNAKALNGFTPLHIACKKNRIRVMELLLKHGASIQAVTESGLTPIHVAAFMGHVNIVSQLMHHGASPNTTNVRGETALHMAARSGQAEVVRYLVQDGAQVEAKAKDDQTPLHISARLGKADIVQQLLQQGASPNAATTSGYTPLHLSAREGHEDVAAFLLDHGASLSITTKKGFTPLHVAAKYGKLEVASLLLQKSASPDAAGKSGLTPLHVAAHYDNQKVALLLLDQGASPHAAAKNGYTPLHIAAKKNQMDIATSLLEYGADANAVTRQGIASVHLAAQEGHVDMVSLLLSRNANVNLSNKSGLTPLHLAAQEDRVNVAEVLVNQGAHVDAQTKMGYTPLHVGCHYGNIKIVNFLLQHSAKVNAKTKNGYTPLHQAAQQGHTHIINVLLQNNASPNELTVNGNTALAIARRLGYISVVDTLKVVTEEIMTTTTITEKHKMNVPETMNEVLDMSDDEGEDAITGDTDKYLGPQDLKELGDDSLPAEGYVGFSLGARSASPKISSDRSYTLNRSSYARDSMMIEELLVPSKEQHLPFTREFDSDSLRHYSWAADTLDNVNLVSSPVHSGFLVSFMVDARGGSMRGSRHHGMRIIIPPRKCTAPTRITCRLVKRHKLANPPPMVEGEGLASRLVEMGPAGAQFLGPVIVEIPHFGSMRGKERELIVLRSENGETWKEHQFDSKNEDLSELLNGMDEELDSPEELGTKRICRIITKDFPQYFAVVSRIKQESNQIGPEGGILSSTTVPLVQASFPEGALTKRIRVGLQAQPVPEETVKKILGNKATFSPIVTVEPRRRKFHKPITMTIPVPPPSGEGVSNGYKGDTTPSLRLLCSITGGTSPAQWEDITGTTPLTFIKDCVSFTTNVSARFWLADCHQVLETVGLASQLYRELICVPYMAKFVVFAKTNDPVESSLRCFCMTDDRVDKTLEQQENFEEVARSKDIEVLEGKPIYVDCYGNLAPLTKGGQQLVFNFYSFKENRLPFSIKVRDTSQEPCGRLSFLKEPKTTKGLPQTAVCNLNITLPAHKKAEKADRRQSFTSLALRPQSPCERTDIRMAIVADHLGLSWTELARELNFSVDEINQIRVENPNSLISQSFMLLKKWVTRDGKNATTDALTSVLTKINRIDIVTLLEGPIFDYGNISGTRSFADENNVFHDPVDGWQNETPSGSLESPAQARRITGGLLDRLDDSSDQVRDPITSYLTGEAGKFEANGNHAEVIPEAKAKAYFPESQNDIGKQSIKENLKPKTHGCGRAEEPVSPLTAYQKSLEETSKLVIEDAPKPCVPVGMKKMTRTPADGKARLNLQEEEGSARSEPKQVKSPGEAFTRMTACCYKDLRHSESDSSSEEERRVTTRVIRRRVIIKGEEAKTIPGESVTEEQFTDEEGNLITRKITRKVIRRIGPQERKQDDVQGEGYKVKTKKEIRNVEKKAH
notes: An immunoreactive band of about 190 kDa is reported; also called purified ankG; recombinant ankG protein
